For this test, the system named is Molm13 AML cells. The test can be described thus: NSG mice with Molm13 AML cells and activated human T cells. The test is classed as in vivo, mouse. The source says: FIGS. 7A-N. Blocking anti-LILRB3 antibody prevents monocytic AML development. (FIG. 7A) Epitope binning of 30 high-affinity IgGs. (FIG. 7B) CFU assay of mouse MLL-AF9 AML cells in the presence of above IgGs (n=3 independent experiments). (FIG. 7C) Binding affinities of the two IgGs from bin #3. (FIG. 7D) Upper: Schematic of treatment. Lower: Percentages of GFP^+ MLL-AF9 mouse AIL cells in peripheral blood (PB), bone marrow (BM), spleen (SPL), and liver (LV) of mice transplanted with AML cells expressing B3-FL or B3delICD and injected with IgG or anti-LILRB3 #1 N297A (n=3 independent mice). (FIG. 7E) Overall survival of mice transplanted with indicated AML cells as above. (FIG. 7F) CFU assay of MLL-AF9 mouse AML cells expressing B3-FL or B3delICD in the presence of IgG or anti-LILRB3 #1 N297A (n=3 independent experiments) (FIG. 7G) Upper: Schematic of treatment. Recipient mice were injected with mouse IgG or anti-mCD8 to deplete CD8 T cells. Lower: Percentages of GFP^+ MLL-AF9 mouse AML cells in peripheral blood (PB), bone marrow (BM), spleen (SPL), and liver (LV) of mice transplanted with AML cells expressing B3-FL or B3delICD and injected with IgG or anti-LILRB3 #1 LALAPG (n=4 mice). (FIG. 7H) Survival of mice as in panel h (n=4 independent mice). (FIG. 7I) Upper: Schematic of treatment. Lower: Whole-body images of NSG mice transplanted with luciferase-expressing THP-1 cells and treated with IgG or anti-LILRB3 #1 N297A (#1NA). (FIG. 7J) Overall survival of the mice shown in panel h (n=3 independent mice). (FIG. 7K) Upper: Schematic of treatment. Lower: Whole-body images of NSG mice transplanted with luciferase-expressing Molm13 cells, injected with activated T cells, and treated with IgG or #1NA. (FIG. 7L) Luciferase signaling as a function of time in mice treated as described in panel k. (FIG. 7M) Overall survival of mice treated as described in panel k (n=3 independent mice). (FIG. 7N) Analyses of T cells in peripheral blood of mice treated as described in panel 1 at 22 days after Molm13 AML cell transplantation. Upper: Flow cytometry analyses. Lower: Plot of T cell percentages (n=3 independent mice). The data are presented as mean±s.e.m, and p values were calculated by two-tailed t-test except for FIG. 7E, FIG. 7H, FIG. 7J and FIG. 7M by log-rank test.
Mice. C57BL/6J and NOD-SCID IL2Rγ-null (NSG) mice were purchased from and maintained at the animal core facility of the University of Texas Southwestern Medical Center. GFP-specific TCR mice (Jedi mice, JAX lab stock No: 028062) were purchased from the Jackson Lab. C57BL/6J CD45.1 mice were injected intraperitoneally with 1×10^6 irradiated MLL-AF9 mouse AML cells (3000 cGy) and LPS or LPS alone as a control. The injection was repeated 10 days later. […]

B1: anti-LILRB3 #1 N297A: IgG #1 with Fc glycosylation N297A mutation, defective Fc-mediated effector functions (antibody, V domains shown)
VH: EVQLVESGGGVVQPGRSLRLSCAASGFTFSSYGMHWVRQAPGKGLEWVAFIRYDGSNKYYADSVKGRFTISRDNSKNTLYLQMNSLRAEDTAVYYCAKAGFSGWYYYGMDVWGQGTMVTVSS
VL: DIVMTQSPSSLSASVGDRLTITCRASQSISTYLNWYQQKPGKAPKLLIYGASSLQSGVPSRFSGSGSGTDFTLTISSLQPEDFATYFCQQSYGLPLTFGGGTKVDIK
As to B1, the “effect on mice without the injection of T cells” value (no T cells) is on record as “little effect”. Also, the “T cells in treated mice” value (peripheral blood, 22 days after Molm13 transplantation, versus IgG) was “significantly more T cells”. In addition, the “leukemia in one of the treated mice” value (with activated human T cells) is on record as “largely eliminated”. The leukemia progression entry (with activated human T cells, antibody at day 8, versus IgG) is on record as “significantly slower”.
